Drawing on the FLAb antibody collection (doi:10.7554/elife.23156), this text covers Kd and yeast surface expression for 57 variants.

B1: scFv; the commonest letter at each place (parent)
chain 1: EVKLDETGGGLVQPGRPMKLSCVASGFTFSDYWMNWVRQSPEKGLEWVAQIRNKPYNYETYYSDSVKGRFTISRDDSKSSVYLQMNNLRVEDMGIYYCTGSYYGMDYWGQGTSVTVS
chain 2: DVVMTQTPLSLPVSLGDQASISCRSSQSLVHSNGNTYLRWYLQKPGQSPKVLIYKVSNRFSGVPDRFSGSGSGTDFTLKISRVEAEDLGVYFCSQSTHVPWTFGGGTKLEIK

Variants of B1 are the subject of the series “fluorescein”. Nature of the series: Kd (Tite-Seq). The following applies: with fluorescein; format: scFv 4-4-20, heavy + light.
Series [1] covers variants of B1. In words: yeast surface expression (ratio to wild type); higher = more expressed. The following applies: format: scFv 4-4-20, heavy + light.

A word on the Kd: it is the constant that tells how readily two partners part at equilibrium.

As to chain 1 S101C Y107G, in the series with fluorescein, the Kd is at least 10 µM. For the same variant, the yeast surface expression in series [1] stood at 0.245.
With chain 1 G104N, in the series with fluorescein, the Kd was at least 10 µM. Moreover, the yeast surface expression in series [1] came out at 1.1.
For chain 1 G104Q the same measures were at least 10 µM and 0.824.
With chain 1 G104A, the Kd with fluorescein is at least 10 µM. Also, the yeast surface expression in series [1] was determined as 0.693.
Take chain 1 Y102L: the dissociation constant Kd with fluorescein was 0.61 µM. Moreover, the yeast surface expression in series [1] worked out at 0.974.
Take chain 1 Y102Q: the dissociation constant (Kd) with fluorescein came to 0.0335 µM. Besides, the yeast surface expression in series [1] turned out to be 1.12.
As for chain 1 M105I, the Kd with fluorescein amounted to 0.0335 µM. Besides, the yeast surface expression in series [1] amounted to 0.914.
Consider chain 1 M105T, for which, in the series with fluorescein, the Kd is at least 10 µM. Further, the yeast surface expression in series [1] was 1.
Taken in the same sequence, the figures for chain 1 Y103H were 0.0132 µM and 1.1.
Taken in the same sequence, the figures for chain 1 Y103I were 0.018 µM and 0.964.
For chain 1 Y103D the same measures were 0.0445 µM and 1.21.
Consider chain 1 Y102L G109N, for which the Kd in the series with fluorescein was at least 10 µM. Moreover, the yeast surface expression in series [1] turned out to be 0.369.
With chain 1 G104I M105S, the dissociation constant Kd with fluorescein was at least 10 µM. The yeast surface expression in series [1] was determined as 0.592.
For chain 1 G100W Y102N D106L the same measures were at least 10 µM and 0.286.
Taken in the same sequence, the figures for chain 1 G100Q Y103R D106L were at least 10 µM and 0.235.
Turning to chain 1 F29N M34A, the Kd with fluorescein was at least 10 µM. Further, in series [1], the yeast surface expression came to 0.918.
For chain 1 T28V W33G the same measures were at least 10 µM and 0.759.
Taken in the same sequence, the figures for chain 1 D106L W108M were at least 10 µM and 0.541.
Taken in the same sequence, the figures for chain 1 W33E N35R were at least 10 µM and 0.588.
Turning to chain 1 D106A Y107F, the Kd in the series with fluorescein turned out to be 1.91 µM. Moreover, in series [1], the yeast surface expression was 0.508.
Taken in the same sequence, the figures for chain 1 S101H Y107R W108C were at least 10 µM and 0.22.
For chain 1 Y32F V37I the same measures were 0.0125 µM and 0.835.
In the case of chain 1 Y102A Y107P, the Kd with fluorescein was at least 10 µM. In addition, in series [1], the yeast surface expression was 0.707.
As to chain 1 G100R W108C, the Kd with fluorescein is at least 10 µM. In series [1], the yeast surface expression turned out to be 0.246.
For chain 1 T28K W33S, in the series with fluorescein, the equilibrium dissociation constant (Kd) was at least 10 µM. Moreover, in series [1], the yeast surface expression is 0.995.
For chain 1 M105D D106G the same measures were at least 10 µM and 0.347.
Taken in the same sequence, the figures for chain 1 G100V M105S were at least 10 µM and 0.855.
For chain 1 T28I D31A, in the series with fluorescein, the Kd was found to be 0.00309 µM. For the same variant, in series [1], the yeast surface expression came out at 0.566.
For chain 1 Y32E W36Q the same measures were 0.216 µM and 0.493.
Taken in the same sequence, the figures for chain 1 Y102S G109Y were at least 10 µM and 0.248.
For chain 1 Y107M G109Q the same measures were at least 10 µM and 0.353.
chain 1 F29Q V37M: the Kd in the series with fluorescein was 0.00239 µM. In series [1], the yeast surface expression amounted to 1.09.
Turning to chain 1 Y103C M105G, the Kd with fluorescein is at least 10 µM. Besides, the yeast surface expression in series [1] was 0.611.
For chain 1 Y102D Y103L G109P, the Kd in the series with fluorescein was at least 10 µM. Also, in series [1], the yeast surface expression came to 0.465.
For chain 1 F29K Y32G the same measures were at least 10 µM and 0.778.
Turning to chain 1 G100S Y103H, in the series with fluorescein, the Kd was determined as 0.0245 µM. Also, the yeast surface expression in series [1] came out at 1.01.
In the case of chain 1 S30H W36M, in the series with fluorescein, the Kd is 2.34 µM. Also, in series [1], the yeast surface expression is 0.564.
Taken in the same sequence, the figures for chain 1 Y102C W108I were at most 0.000316 µM and 0.7.
For chain 1 N35H W36L the same measures were at least 10 µM and 0.718.
For chain 1 G100C S101W, the Kd with fluorescein was at least 10 µM. Also, in series [1], the yeast surface expression came out at 0.507.
Consider chain 1 M34G N35P, for which the Kd with fluorescein was found to be 5.37 µM. Moreover, the yeast surface expression in series [1] is 0.778.
For chain 1 S101L G104S the same measures were at least 10 µM and 0.326.
For chain 1 S101M G104W the same measures were at least 10 µM and 0.278.
Taken in the same sequence, the figures for chain 1 G104K Y107N were at least 10 µM and 0.424.
chain 1 Y103H W108R: in the series with fluorescein, the Kd is at least 10 µM. Further, in series [1], the yeast surface expression came to 0.35.
Taken in the same sequence, the figures for chain 1 G100W S101D G109V were at least 10 µM and 0.286.
chain 1 Y103T D106Y: the Kd in the series with fluorescein was at least 10 µM. In addition, the yeast surface expression in series [1] worked out at 0.37.
Taken in the same sequence, the figures for chain 1 D31Y W33H were at least 10 µM and 0.579.
Taken in the same sequence, the figures for chain 1 Y107H W108T were 0.000989 µM and 0.924.
On to chain 1 F29T W36D, for which the dissociation constant (Kd) with fluorescein was at least 10 µM. Moreover, in series [1], the yeast surface expression amounted to 0.484.
Taken in the same sequence, the figures for chain 1 S30N W33M were at least 10 µM and 0.879.
For chain 1 S30A N35Y the same measures were at least 10 µM and 0.655.
For chain 1 T28M, in the series with fluorescein, the dissociation constant Kd was 0.00265 µM. Besides, the yeast surface expression in series [1] came to 1.02.
Taken in the same sequence, the figures for chain 1 T28F were 0.00444 µM and 0.842.
For chain 1 W33G M34I the same measures were at least 10 µM and 0.433.
Regarding chain 1 T28P V37P, the Kd in the series with fluorescein was at least 10 µM. Also, in series [1], the yeast surface expression turned out to be 1.08.
Taken in the same sequence, the figures for chain 1 G100V Y103R G104L were at least 10 µM and 0.88.
